Results reported in PMC9482650, “Quantitative fragmentomics allow affinity mapping of interactomes” (Nature Communications, 2022).

T1: LIN7B, Q9HAP6
T1 sequence (Q9HAP6 88-185, limits assumed, looked up): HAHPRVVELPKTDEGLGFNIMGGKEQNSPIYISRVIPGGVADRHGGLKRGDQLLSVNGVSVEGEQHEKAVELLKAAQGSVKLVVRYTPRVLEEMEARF

T2: SYNJ2BP, P57105
T2 sequence (P57105 8-110, limits assumed, looked up): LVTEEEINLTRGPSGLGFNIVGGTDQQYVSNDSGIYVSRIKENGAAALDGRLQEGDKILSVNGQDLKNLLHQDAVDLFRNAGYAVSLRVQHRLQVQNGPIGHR

T3: PARD3B_1, Q8TEW8
T3 sequence (Q8TEW8 196-299, limits assumed, looked up): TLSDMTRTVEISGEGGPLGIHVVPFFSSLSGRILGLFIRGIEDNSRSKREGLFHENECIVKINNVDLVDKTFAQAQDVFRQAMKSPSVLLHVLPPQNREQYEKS

T4: DFNB31_1, Q9P202
T4 sequence (Q9P202 135-233, limits assumed, looked up): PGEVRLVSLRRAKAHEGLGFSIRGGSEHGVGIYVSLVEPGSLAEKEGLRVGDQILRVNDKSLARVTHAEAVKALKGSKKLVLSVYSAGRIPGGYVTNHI

T5: HTRA3, P83110
T5 sequence (P83110 354-453, limits assumed, looked up): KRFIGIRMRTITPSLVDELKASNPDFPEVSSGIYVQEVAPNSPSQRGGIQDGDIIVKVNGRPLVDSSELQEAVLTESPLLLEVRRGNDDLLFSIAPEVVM

T6: DLG3_2, Q92796
T6 sequence (Q92796 221-321, limits assumed, looked up): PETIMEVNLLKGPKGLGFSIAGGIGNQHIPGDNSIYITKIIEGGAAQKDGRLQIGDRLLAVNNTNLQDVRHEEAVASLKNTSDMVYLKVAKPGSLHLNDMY

T7: DLG3_1, Q92796
T7 sequence (Q92796 125-227, limits assumed, looked up): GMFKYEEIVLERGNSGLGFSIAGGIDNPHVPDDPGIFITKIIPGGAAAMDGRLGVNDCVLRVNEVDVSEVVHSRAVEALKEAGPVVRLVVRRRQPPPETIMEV

T8: GRIP1_4, Q9Y3R0
T8 sequence (Q9Y3R0 467-571, limits assumed, looked up): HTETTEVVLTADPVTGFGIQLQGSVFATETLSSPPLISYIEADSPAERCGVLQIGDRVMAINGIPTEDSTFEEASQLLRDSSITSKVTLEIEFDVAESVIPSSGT

T9: RHPN1, Q8TCX5
T9 sequence (Q8TCX5 508-602, limits assumed, looked up): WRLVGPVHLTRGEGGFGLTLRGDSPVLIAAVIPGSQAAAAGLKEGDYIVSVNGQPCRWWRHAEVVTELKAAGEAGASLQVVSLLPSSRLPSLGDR

T10: PTPN13_1, Q12923
T10 sequence (Q12923 1088-1188, limits assumed, looked up): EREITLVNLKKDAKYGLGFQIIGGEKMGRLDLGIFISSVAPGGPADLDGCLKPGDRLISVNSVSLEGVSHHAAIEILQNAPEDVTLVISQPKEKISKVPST

T11: GRIP1_2, Q9Y3R0
T11 sequence (Q9Y3R0 145-248, limits assumed, looked up): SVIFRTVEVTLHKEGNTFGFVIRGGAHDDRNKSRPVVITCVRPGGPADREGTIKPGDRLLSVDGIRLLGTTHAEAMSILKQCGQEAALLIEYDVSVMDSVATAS

T12: MPDZ_10, O75970
T12 sequence (O75970 1624-1722, limits assumed, looked up): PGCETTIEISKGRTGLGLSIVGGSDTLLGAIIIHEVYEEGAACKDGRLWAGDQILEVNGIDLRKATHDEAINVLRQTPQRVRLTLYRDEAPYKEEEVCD


molecular target: GORASP2, Q9H8Y8; assay: holdup assay; set-up: key: below the threshold = too weak to quantify, mostly under pKd 3.1 to 4; conditions: plain residues with an end cap or a label only (N-terminal biotin on a linker: ado-ado)

| pKd | Binder |
| --- | --- |
| below the threshold | YRLAQESGLV [ABCC6, O95255] |
| 3.62 | LKVPPEERLI [CRB2, Q5IJ48] |

molecular target: Inadl_9, Q8NI35; assay: holdup assay; set-up: key: below the threshold = too weak to quantify, mostly under pKd 3.1 to 4; conditions: plain residues with an end cap or a label only (N-terminal biotin on a linker: ado-ado)
Sequence (Q8NI35 1530-1615): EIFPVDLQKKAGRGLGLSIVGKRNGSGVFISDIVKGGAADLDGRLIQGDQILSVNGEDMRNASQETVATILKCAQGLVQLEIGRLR

| pKd | Binder |
| --- | --- |
| below the threshold | YRLAQESGLV [ABCC6, O95255] |
| below the threshold | LKVPPEERLI [CRB2, Q5IJ48] |

molecular target: T1, LIN7B, Q9HAP6; assay: holdup assay; set-up: key: below the threshold = too weak to quantify, mostly under pKd 3.1 to 4; conditions: plain residues with an end cap or a label only (N-terminal biotin on a linker: ado-ado)

| pKd | Binder |
| --- | --- |
| below the threshold | YRLAQESGLV [ABCC6, O95255] |
| below the threshold | LKVPPEERLI [CRB2, Q5IJ48] |

molecular target: LAP2, Q96RT1; assay: holdup assay; set-up: key: below the threshold = too weak to quantify, mostly under pKd 3.1 to 4; conditions: plain residues with an end cap or a label only (N-terminal biotin on a linker: ado-ado)
Sequence (Q96RT1 other isoform, or with tags, fused parts or gaps): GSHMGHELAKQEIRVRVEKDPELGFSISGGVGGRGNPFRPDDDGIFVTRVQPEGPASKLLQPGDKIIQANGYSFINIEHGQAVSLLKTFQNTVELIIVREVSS

| pKd | Binder |
| --- | --- |
| below the threshold | YRLAQESGLV [ABCC6, O95255] |
| below the threshold | LKVPPEERLI [CRB2, Q5IJ48] |

molecular target: TJP2_1, Q9UDY2; assay: holdup assay; set-up: key: below the threshold = too weak to quantify, mostly under pKd 3.1 to 4; conditions: plain residues with an end cap or a label only (N-terminal biotin on a linker: ado-ado)
Sequence (Q9UDY2 24-128): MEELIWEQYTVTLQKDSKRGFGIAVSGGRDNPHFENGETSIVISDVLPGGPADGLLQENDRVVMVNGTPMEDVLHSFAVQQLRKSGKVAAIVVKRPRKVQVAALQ

| pKd | Binder |
| --- | --- |
| below the threshold | YRLAQESGLV [ABCC6, O95255] |
| below the threshold | LKVPPEERLI [CRB2, Q5IJ48] |

molecular target: HTRA1, Q92743; assay: holdup assay; set-up: key: below the threshold = too weak to quantify, mostly under pKd 3.1 to 4; conditions: plain residues with an end cap or a label only (N-terminal biotin on a linker: ado-ado)
Sequence (Q92743 360-477): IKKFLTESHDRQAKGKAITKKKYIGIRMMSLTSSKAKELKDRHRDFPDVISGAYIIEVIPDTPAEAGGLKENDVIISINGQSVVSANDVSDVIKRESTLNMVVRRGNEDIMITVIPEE

| pKd | Binder |
| --- | --- |
| 3.98 | YRLAQESGLV [ABCC6, O95255] |
| 4.18 | LKVPPEERLI [CRB2, Q5IJ48] |

molecular target: T2, SYNJ2BP, P57105; assay: holdup assay; set-up: key: below the threshold = too weak to quantify, mostly under pKd 3.1 to 4; conditions: plain residues with an end cap or a label only (N-terminal biotin on a linker: ado-ado)

| pKd | Binder |
| --- | --- |
| below the threshold | YRLAQESGLV [ABCC6, O95255] |
| below the threshold | LKVPPEERLI [CRB2, Q5IJ48] |

molecular target: IL16_1, Q14005; assay: holdup assay; set-up: key: below the threshold = too weak to quantify, mostly under pKd 3.1 to 4; conditions: plain residues with an end cap or a label only (N-terminal biotin on a linker: ado-ado)
Sequence (Q14005 210-306): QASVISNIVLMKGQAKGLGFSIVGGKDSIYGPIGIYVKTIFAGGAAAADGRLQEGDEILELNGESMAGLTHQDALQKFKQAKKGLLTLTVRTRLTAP

| pKd | Binder |
| --- | --- |
| below the threshold | YRLAQESGLV [ABCC6, O95255] |
| below the threshold | LKVPPEERLI [CRB2, Q5IJ48] |

molecular target: T3, PARD3B_1, Q8TEW8; assay: holdup assay; set-up: key: below the threshold = too weak to quantify, mostly under pKd 3.1 to 4; conditions: plain residues with an end cap or a label only (N-terminal biotin on a linker: ado-ado)

| pKd | Binder |
| --- | --- |
| 4.13 | YRLAQESGLV [ABCC6, O95255] |
| 3.88 | LKVPPEERLI [CRB2, Q5IJ48] |

molecular target: Inadl_10, Q8NI35; assay: holdup assay; set-up: key: below the threshold = too weak to quantify, mostly under pKd 3.1 to 4; conditions: plain residues with an end cap or a label only (N-terminal biotin on a linker: ado-ado)
Sequence (Q8NI35 1673-1763): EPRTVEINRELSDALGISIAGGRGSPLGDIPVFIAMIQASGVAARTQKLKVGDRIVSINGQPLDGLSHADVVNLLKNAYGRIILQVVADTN

| pKd | Binder |
| --- | --- |
| below the threshold | YRLAQESGLV [ABCC6, O95255] |
| below the threshold | LKVPPEERLI [CRB2, Q5IJ48] |

molecular target: T4, DFNB31_1, Q9P202; assay: holdup assay; set-up: key: below the threshold = too weak to quantify, mostly under pKd 3.1 to 4; conditions: plain residues with an end cap or a label only (N-terminal biotin on a linker: ado-ado)

| pKd | Binder |
| --- | --- |
| below the threshold | YRLAQESGLV [ABCC6, O95255] |
| below the threshold | LKVPPEERLI [CRB2, Q5IJ48] |

molecular target: NHERF4_4, Q86UT5; assay: holdup assay; set-up: key: below the threshold = too weak to quantify, mostly under pKd 3.1 to 4; conditions: plain residues with an end cap or a label only (N-terminal biotin on a linker: ado-ado)
Sequence (Q86UT5 464-550): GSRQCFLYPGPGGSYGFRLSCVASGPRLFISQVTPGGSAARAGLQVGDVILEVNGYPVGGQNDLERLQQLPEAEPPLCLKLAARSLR

| pKd | Binder |
| --- | --- |
| below the threshold | YRLAQESGLV [ABCC6, O95255] |
| below the threshold | LKVPPEERLI [CRB2, Q5IJ48] |

molecular target: T5, HTRA3, P83110; assay: holdup assay; set-up: key: below the threshold = too weak to quantify, mostly under pKd 3.1 to 4; conditions: plain residues with an end cap or a label only (N-terminal biotin on a linker: ado-ado)

| pKd | Binder |
| --- | --- |
| below the threshold | YRLAQESGLV [ABCC6, O95255] |
| below the threshold | LKVPPEERLI [CRB2, Q5IJ48] |

molecular target: T6, DLG3_2, Q92796; assay: holdup assay; set-up: key: below the threshold = too weak to quantify, mostly under pKd 3.1 to 4; conditions: plain residues with an end cap or a label only (N-terminal biotin on a linker: ado-ado)

| pKd | Binder |
| --- | --- |
| below the threshold | YRLAQESGLV [ABCC6, O95255] |
| below the threshold | LKVPPEERLI [CRB2, Q5IJ48] |

molecular target: T7, DLG3_1, Q92796; assay: holdup assay; set-up: key: below the threshold = too weak to quantify, mostly under pKd 3.1 to 4; conditions: plain residues with an end cap or a label only (N-terminal biotin on a linker: ado-ado)

| pKd | Binder |
| --- | --- |
| below the threshold | YRLAQESGLV [ABCC6, O95255] |
| below the threshold | LKVPPEERLI [CRB2, Q5IJ48] |

molecular target: T8, GRIP1_4, Q9Y3R0; assay: holdup assay; set-up: key: below the threshold = too weak to quantify, mostly under pKd 3.1 to 4; conditions: plain residues with an end cap or a label only (N-terminal biotin on a linker: ado-ado)

| pKd | Binder |
| --- | --- |
| below the threshold | YRLAQESGLV [ABCC6, O95255] |
| below the threshold | LKVPPEERLI [CRB2, Q5IJ48] |

molecular target: Inadl_5, Q8NI35; assay: holdup assay; set-up: key: below the threshold = too weak to quantify, mostly under pKd 3.1 to 4; conditions: plain residues with an end cap or a label only (N-terminal biotin on a linker: ado-ado)
Sequence (Q8NI35 673-780): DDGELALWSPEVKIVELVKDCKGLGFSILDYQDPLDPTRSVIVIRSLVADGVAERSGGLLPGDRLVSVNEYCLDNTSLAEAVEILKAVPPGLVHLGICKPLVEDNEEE

| pKd | Binder |
| --- | --- |
| below the threshold | YRLAQESGLV [ABCC6, O95255] |
| below the threshold | LKVPPEERLI [CRB2, Q5IJ48] |

molecular target: T9, RHPN1, Q8TCX5; assay: holdup assay; set-up: key: below the threshold = too weak to quantify, mostly under pKd 3.1 to 4; conditions: plain residues with an end cap or a label only (N-terminal biotin on a linker: ado-ado)

| pKd | Binder |
| --- | --- |
| below the threshold | YRLAQESGLV [ABCC6, O95255] |
| below the threshold | LKVPPEERLI [CRB2, Q5IJ48] |

molecular target: T10, PTPN13_1, Q12923; assay: holdup assay; set-up: key: below the threshold = too weak to quantify, mostly under pKd 3.1 to 4; conditions: plain residues with an end cap or a label only (N-terminal biotin on a linker: ado-ado)

| pKd | Binder |
| --- | --- |
| below the threshold | YRLAQESGLV [ABCC6, O95255] |
| below the threshold | LKVPPEERLI [CRB2, Q5IJ48] |

molecular target: NOS1, P29475; assay: holdup assay; set-up: key: below the threshold = too weak to quantify, mostly under pKd 3.1 to 4; conditions: plain residues with an end cap or a label only (N-terminal biotin on a linker: ado-ado)
Sequence (P29475 9-101): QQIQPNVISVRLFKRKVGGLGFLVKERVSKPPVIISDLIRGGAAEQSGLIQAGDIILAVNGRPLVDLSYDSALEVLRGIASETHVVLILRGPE

| pKd | Binder |
| --- | --- |
| below the threshold | YRLAQESGLV [ABCC6, O95255] |
| below the threshold | LKVPPEERLI [CRB2, Q5IJ48] |

molecular target: TJP1_3, Q07157; assay: holdup assay; set-up: key: below the threshold = too weak to quantify, mostly under pKd 3.1 to 4; conditions: plain residues with an end cap or a label only (N-terminal biotin on a linker: ado-ado)
Sequence (Q07157 416-512): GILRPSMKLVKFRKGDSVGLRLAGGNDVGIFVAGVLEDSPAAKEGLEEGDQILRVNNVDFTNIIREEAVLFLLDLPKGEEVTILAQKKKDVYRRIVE

| pKd | Binder |
| --- | --- |
| below the threshold | YRLAQESGLV [ABCC6, O95255] |
| below the threshold | LKVPPEERLI [CRB2, Q5IJ48] |

molecular target: T11, GRIP1_2, Q9Y3R0; assay: holdup assay; set-up: key: below the threshold = too weak to quantify, mostly under pKd 3.1 to 4; conditions: plain residues with an end cap or a label only (N-terminal biotin on a linker: ado-ado)

| pKd | Binder |
| --- | --- |
| below the threshold | YRLAQESGLV [ABCC6, O95255] |
| below the threshold | LKVPPEERLI [CRB2, Q5IJ48] |

molecular target: T12, MPDZ_10, O75970; assay: holdup assay; set-up: key: below the threshold = too weak to quantify, mostly under pKd 3.1 to 4; conditions: plain residues with an end cap or a label only (N-terminal biotin on a linker: ado-ado)

| pKd | Binder |
| --- | --- |
| below the threshold | YRLAQESGLV [ABCC6, O95255] |
| below the threshold | LKVPPEERLI [CRB2, Q5IJ48] |

molecular target: DLG1_3, Q12959; assay: holdup assay; set-up: key: below the threshold = too weak to quantify, mostly under pKd 3.1 to 4; conditions: plain residues with an end cap or a label only (N-terminal biotin on a linker: ado-ado)
Sequence (Q12959 457-571): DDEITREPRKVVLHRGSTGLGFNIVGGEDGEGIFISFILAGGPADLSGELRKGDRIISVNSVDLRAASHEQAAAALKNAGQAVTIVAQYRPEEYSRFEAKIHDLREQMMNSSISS

| pKd | Binder |
| --- | --- |
| below the threshold | YRLAQESGLV [ABCC6, O95255] |
| below the threshold | LKVPPEERLI [CRB2, Q5IJ48] |

molecular target: DLG4_1, P78352; assay: holdup assay; set-up: key: below the threshold = too weak to quantify, mostly under pKd 3.1 to 4; conditions: plain residues with an end cap or a label only (N-terminal biotin on a linker: ado-ado)
Sequence (P78352 62-152): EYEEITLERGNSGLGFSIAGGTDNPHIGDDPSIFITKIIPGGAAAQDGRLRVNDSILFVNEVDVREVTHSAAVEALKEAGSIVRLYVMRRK

| pKd | Binder |
| --- | --- |
| below the threshold | YRLAQESGLV [ABCC6, O95255] |
| below the threshold | LKVPPEERLI [CRB2, Q5IJ48] |
